Here are results for four molecules from patent US20020012945A1, “METHOD AND REAGENT FOR THE DETECTION OF APOPTOTIC CELLS AND OF A PROTEASE ACTIVATED DURING APOPTOSIS” (priority 1998, published 2002).

* marks the point of attachment. Dnp = O=[N+]([O-])c1ccc(*)c([N+](=O)[O-])c1; Mca = COc1ccc2c(CC(=O)*)cc(=O)oc2c1

In test [1] the test system is caspase 3. Nature of the test: Caspase 3 activation in camptothecin-treated U937 cells, antibody capture and Ac-DEVD-AFC cleavage. Type of test: cell-based, human. Particulars: U937 5×10^5 cells/ml, 4 μg/ml camptothecin, after 2 h. The protocol:
In order to induce apoptosis in a cellular system, human cells (U937; human histiolytic lymphoma […]) were treated with camptothecin (Topoisomerase I inhibitor, chemotherapeutic agent). […] In order to detect the protease activated by apoptosis (caspase 3), ca. 10^6 cells were withdrawn from the treated cell culture and lysed in lysis buffer (50 mM NaPO4, 10 mM NaCl, 1 mM […], 0.25% (w/v) Nonidet P40, 0.3 mM EDTA; pH 7.8) on ice. The lysate is then contacted with an antibody directed against caspase 3 which is coupled to a solid phase and binds caspase 3 from the lysate for the specific caspase 3 analysis. After removing the supernatant (contains all unspecific components and enzymes), a substrate (50 μM Ac-DEVD-AFC) is added and its caspase 3 mediated substrate conversion is measured by the formation of the fluorescent coumarin cleavage product. After subtraction of the blank value (self fluorescence of the substrate without lysate addition), the kinetic course of the caspase 3 activity can be shown graphically (FIG. 1).

In test [2] the target is T1, caspase 3 (Homo sapiens, UniProt P42574).
T1 construct: endogenous in cells; host or cells: cell lysates with and without camptothecin induction (cell model U937/CAM)
T1 sequence (P42574 29-175 limits assumed): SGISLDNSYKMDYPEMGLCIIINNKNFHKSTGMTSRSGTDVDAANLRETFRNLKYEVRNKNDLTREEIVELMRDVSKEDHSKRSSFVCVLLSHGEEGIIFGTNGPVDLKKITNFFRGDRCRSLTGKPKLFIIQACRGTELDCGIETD
T1 sequence (P42574 176-277 limits assumed): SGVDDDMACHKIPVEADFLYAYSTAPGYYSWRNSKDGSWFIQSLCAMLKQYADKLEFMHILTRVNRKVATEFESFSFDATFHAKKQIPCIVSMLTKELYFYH
Nature of the test: Selection of the optimal fluorescent substrate. It is filed as biochemical. The method, then: Three fluorescent substrates were tested. They are acetyl-Asp-Glu-Val-Asp-7-amido-4-trifluoromethyl-coumarin (AFC), acetyl-Asp-Glu-Val-Asp-7-amido-4-methyl-coumarin (AMC) and (7-methoxycoumarin-4-yl)acetyl-Asp-Glu-Val-Asp-Ala-Pro-Lys(2,4-dinitrophenyl)OH (Mca). The three substrates were compared with one another using the assessment criteria i) background ii) signal level and iii) signal ratio from ± induction.

On to `CC[C@@]1(O)C(=O)OCc2c1cc1n(c2=O)Cc2cc3ccccc3nc2-1` [camptothecin], for which the “protease activity (caspase 3)” value in the test with caspase 3 [1] is recorded as “increase of protease activity”.
As to “(7-methoxycoumarin-4-yl)acetyl-Asp-Glu-Val-Asp-Ala-Pro-Lys(2,4-dinitrophenyl)OH (Mca-DEVDAPK(Dnp)-OH; SMILES COc1ccc2c(CC(=O)N[C@@H](CC(=O)O)C(=O)N[C@@H](CCC(=O)O)C(=O)N[C@H](C(=O)N[C@@H](CC(=O)O)C(=O)N[C@@H](C)C(=O)N3CCC[C@H]3C(=O)N[C@@H](CCCCNc3ccc([N+](=O)[O-])cc3[N+](=O)[O-])C(=O)O)C(C)C)cc(=O)oc2c1)”, in the test with caspase 3 [2], the signal level entry was “low signal levels” and the “signal ratio from ± induction” value is “somewhat better ratio”.
Consider “acetyl-Asp-Glu-Val-Asp-7-amido-4-methyl-coumarin [AMC]”, for which, in the test with caspase 3 [2], the “background (self-fluorescence of the substrate without lysate addition)” value is “relatively high” and the signal level entry is recorded as “highest signals”.
“acetyl-Asp-Glu-Val-Asp-7-amido-4-trifluoromethyl-coumarin [AFC]”: in the test with caspase 3 [2], the signal level result was “very good signal yield” and the “signal ratio from ± induction” value is listed as “optimal ratio”.
